In the DeepSol protein solubility set:

assay: soluble on expression in E. coli; label from the status in PepcDB or PDB records

Sequence	soluble on expression in E. coli
GSHMTETVPLILLVPKSRREDLEKAQLAERLRSQFFIDYGVRLPEVLLRDGEGLDDNSIVLLINEIRVEQFTVYFDLMRVVNYSDEVVSFGINPTIHQQGSSQYFWVTHEEGEKLRELGYVLRNALDELYHCLAVTLARNVNEYFGIQETKHMLDQLEAKFPDLLKEVLRHATVQRISEVLQRLLSERVSVRNMKLIMEALALWAPREKDVINLVEHIRGAMARYICHKFANGGELRAVMVSAEVEDVIRKGIRQTSGSTFLSLDPEASANLMDLITLKLDDLLIAHKDLVLLTSVDVRRFIKKMIEGRFPDLEVLSFGEIADSKSVNVIKTI	soluble
GSHMTGISRETSSDVALASHILTALREKQAPELSLSSQDLELVTKEDPKALAVALNWDIKKTETVQEACERELALRLQQTQSLHSLRSISASKASPPGDLQNPKRARQDPT	soluble
GSHMTSFLHAYFTRLHCQPLGVPTVEALRTLHLAHNCAIPFENLDVLLPREIQLDETALEEKLLYARRGGYCFELNGLFERALRDIGFNVRSLLGRVILSHPASLPPRTHRLLLVDVEDEQWIADVGFGGQTLTAPLRLQAEIAQQTPHGEYRLMQEGSTWILQFRHHEHWQSMYCFDLGVQQQSDHVMGNFWSAHWPQSHFRHHLLMCRHLPDGGKLTLTNFHFTRYHQGHAVEQVNVPDVPSLYQLLQQQFGLGVNDVKHGFTEAELAAVMAAFDTHPEAGK	soluble
GSHMVMNTHPYQSEAVSDVWSLSKTSMTFQPKKASLQPLTISLDELFSSRGEFISVGGNGRMSHKEAILLGLRYKKLYNQARVKYSL	soluble
GSHSMKYFYTSMSRPGRGQPRFIAVGYVDDTQFVRFDSDAASQRMEPRAPWVEQEGPEYWDRETRNMKTETQNAPVNLRTLLRYYNQSEAGSHTLQRMVGCDLGPDGRLLRGYEQYAYDGKDYIALNEDLRSWTAADVAAQNTQRKWEAADVAESMRAYLEGQCVEWLPRYLEKGKETLQRTDPPKTHVTHHPVSDHEATLRCWALGFYPAEITLTWQRDGEDQTQDTELVETRPAGDGTFQKWAAVVVPSGEEQRYTCHVQHEGLPKPHTLKWEPHH	soluble
GSMAISDPPNSSSVPLEGNGTILVKGNVTIIVEGNADITVKGDATTLVEGNQTNTVNGNLSWKVAGTVDWDVGGDWTEKMASMSSISSGQYTIDGSRIDIGSVEGYIPEAPRDGQAYVRKDGEWVFLSTFLVEHHHHHH	soluble
GSMAPLGGAPRLVLLFSGKRKSGKDFVTEALQSRLGADVCAVLRLSGPLKEQYAQEHGLNFQRLLDTSTYKEAFRKDMIRWGEEKRQADPGFFCRKIVEGISQPIWLVSDTRRVSDIQWFREAYGAVTQTVRVVALEQSRQQRGWVFTPGVDDAESECGLDNFGDFDWVIENHGVEQRLEEQLENLIEFIRSRLKLHHHHHH	soluble
GSNGMSQLPAPVSVESSWRYIDTQGQIHGPFTTQMMSQWYIGGYFASTLQISRLGSTPETLGINDIFITLGELMTKLEKYDTDPFTTFDKLHVQTTSSDS	soluble
GSPEFMELEIRPLFLVPDTNGFIDHLASLARLLESRKYILVVPLIVINELDGLAKGQETDHRAGGYARVVQEKARKSIEFLEQRFESRDSCLRALTSRGNELESIAFRSEDITGQLGNNDDLILSCCLHYCKDKAKDFMPASKEEPIRLLREVVLLTDDRNLRVKALTRNVPVRDIPAFLTWAQVG	soluble
GTEDTVIKVSVLRGPSVIAFADWLENPPIIDNKKVQVKVVDSPDLAQALLIKQETDIAVLPMINAANLYNKGIKIKLAGCPIWGTLYLVEKTPLKEPALYVFGNGTTPDILTRYYLGRQRLDYPLNYAFNTAGEITQGILAGKVNRAVLGEPFLSIALRKDSSLRITADLNHLTDNDTLGFAQTAVVYTPTMEKYRIAFEDALRASCQKAVRYPKETIHSLEEHGIFAQGALTPKSIERCKIYYLSAIEAKDAVMGFLRLIEQYEPKAVGGRLPDAGFIPEKQ	soluble
GTEVEIPVVHDPKGEAVLPSVFEDGTRQGWDWAGESGVKTALTIEEANGSNALSWEFGYPEVKPSDNWATAPRLDFWKSDLVRGENDYVTFDFYLDPVRATEGAMNINLVFQPPTNGYWVQAPKTYTINFDELEEANQVNGLYHYEVKINVRDITNIQDDTLLRNMMIIFADVESDFAGRVFVDNVRFEGA	soluble
